Assay results published in publication PMC2133122.
Values joined by “and” are separate entries in the source; they are usually repeats but may differ in a detail not shown here. Equal values may be shown once.

Key:
[1] = molecular target: mutant mtHsp70 encoded by the allele ssc1-2 (Ssc1-2p) (S. cerevisiae (endogenous in yeast mitochondria)) (UniProt P0CS90); experiment: co-IP
[2] = molecular target: mitochondrial Hsp70 (mtHsp70, Ssc1p), wild type (S. cerevisiae (endogenous in yeast mitochondria)) (UniProt P0CS90); experiment: co-IP

Row | fold efficiency of binding against wild-type mtHsp70 [1] [fold] | fold reduction of complex formation with mtHsp70 against authentic Tim44 [2] | percent reduction of complex formation with mtHsp70 against authentic Tim44 [2] [%] | Substance
1 | > 4 |  |  | Su9-DHFR, imported into mitochondria (from UniProt P00375 1-187)
2 |  | 3 fold and 4 fold | 70 | Tim44Δ18 (Tim44 with a deletion of residues 185–202) (natural protein)
